Data reported in US20110301327A1 (MANNKIND, published 2011).
Read-outs that look alike come from different tables or passages of the source. Where no end group is shown, it is not given here. [ ]: non-standard residue; d: D form. Orn = NCCC[C@H](N)C(=O)O; Nva = CCC[C@H](N)C(=O)O

Columns and labels:
[1] = molecular target: T1, HLA-A*0201 (human); assay: T2 cell binding, flow cytometry
T1 construct: Empty class I on TAP-deficient T2 cells, stabilised by the added peptide; also called HLA-A2; MHC class I (A2 allele) on T2 cells

[2] = molecular target: T2, HLA-A*0201 class I monomer (ITOPIA Epitope Discovery System plates); assay: iTopia binding assay
T2 construct: Bought kit; for the PSMA series only HLA-A2 is implied; also called MHC monomer; HLA-A2

[3] = molecular target: T1, HLA-A*0201; assay: T2 cell binding, flow cytometry; remark: listed apart in the source
[4] = molecular target: T2, HLA-A*0201 class I monomer (ITOPIA …); assay: iTopia affinity assay (ED50)
[5] = molecular target: T2, HLA-A*0201 class I monomer (ITOPIA …); assay: iTopia affinity assay
[6] = molecular target: T1, HLA-A*0201; assay: T2 cell binding, flow cytometry; half-maximal binding

B1: SSX-2 41-50(A42L, Y50L) (peptide)
peptide: KLSEKIFYVL
- binding result [1]: binds

B2: SSX-2 41-50(A42L, Y50V) (peptide)
peptide: KLSEKIFYVV
- binding result [1]: binds

B3: SSX-2 41-50(A42L, Y50(Nle)) (peptide)
peptide: KLSEKIFYVX
modifications: Nle, norleucine, at position 10 (50)
- binding result [1]: binds

B4: NY-ESO-1 157-165 S157F (peptide)
peptide: FLLMWITQC
notes: also called Substitution of S157 with F
- binding result [1]: binds

B5: NY-ESO-1 157-165 S157K (peptide)
peptide: KLLMWITQC
notes: also called Substitution of S157 with K
- binding result [1]: binds

B6: PRAME425-433 analog, Hse at P1 (peptide)
peptide: XLLQHLIGL
modifications: Hse (homoserine) at P1
- binding result [2]: binds

B7: PRAME425-433 analog, Orn at P1 (peptide)
peptide: [Orn]LLQHLIGL
- binding result [2]: binds

B8: SSX2 41-49-NH2 (peptide)
peptide: KASEKIFYX
modifications: C-terminal amide
- binding result [3]: no binding

B9: PRAME425-433 analog, Nva at P2 (peptide)
peptide: S[Nva]LQHLIGL
- fold reduction of affinity against the native peptide [4]: ~3 fold

B10: PRAME425-433 analog, Ala at PO (peptide)
peptide: SLLQHLIGA
- binding result [5]: binds

B11: PRAME425-433 analog, Lys at P1 (peptide)
peptide: KLLQHLIGL
notes: also called Lys P1 analog
- binding result [2]: binds

B12: SSX2 41-49 (K41F, A42V, V49M) (peptide)
peptide: FVSEKIFYM
- EC50 [6]: 17.8 µM

B13: SSX2 41-49(A42V, V49I) (peptide)
peptide: KVSEKIFYI
- EC50 [6]: 13.9 µM

B14: SSX2 41-49(V49I) (peptide)
peptide: KASEKIFYI
- EC50 [6]: 14 µM

B15: SSX2 41-49(A42L, V49I) (peptide)
peptide: KLSEKIFYI
- EC50 [6]: 5.68 µM

B16: SSX-2 41-50(A42L, Y50(Nva)) (peptide)
peptide: KLSEKIFYVX
modifications: Nva, norvaline, at position 10 (50)
- binding result [1]: binds
